Measurements reported in patent publication US10077319B2, “Anti-PCSK9-GLP-1 fusions and methods for use” (MedImmune, LLC, priority 2014, dated 2018).
Residue numbers refer to the chain shown, from its start. Numbers in names are those of the source. Unless stated, no cut-off for active and inactive is given here.

B1: HS9_DSB7_G2Y: HS9_DSB7 with peptide point mutation G2Y; SEQ ID NO: 444 (protein)
chain: HYEGTFTSDLSKQMEEECVRLFIEWLKNGGPSSGAPPPGCGGGGGSGGGGSGGGGSADIQMTQSPSSLSASVGDRVTITCQASQDVKTAVAWYQQKPGKAPKLLIYSASYRYTGVPSRFSGSGSGTDFTFTISSLQPEDIATYYCQQRYSLWRTFGQGTKLEIK
B2: HS9_DSB7_G2T: HS9_DSB7 with peptide point mutation G2T; SEQ ID NO: 446 (protein)
chain: B1 chain with Y2T
B3: HS9_DSB7_I23S: HS9_DSB7 with peptide point mutation I23S; SEQ ID NO: 458 (protein)
chain: B1 chain with Y2G, I23S
B4: HS9_DSB7_L26M: HS9_DSB7 with peptide point mutation L26M; SEQ ID NO: 466 (protein)
chain: B1 chain with Y2G, L26M
B5: HS9_DSB7_I23T: HS9_DSB7 with peptide point mutation I23T; SEQ ID NO: 457 (protein)
chain: B1 chain with Y2G, I23T
B6: HS9_DSB7_G2N: HS9_DSB7 with peptide point mutation G2N; SEQ ID NO: 448 (protein)
chain: B1 chain with Y2N
B7: HS9_DSB7_G2Q: HS9_DSB7 with peptide point mutation G2Q; SEQ ID NO: 447 (protein)
chain: B1 chain with Y2Q
B8: HS9_DSB7_L26E: HS9_DSB7 with peptide point mutation L26E; SEQ ID NO: 470 (protein)
chain: B1 chain with Y2G, L26E
B9: HS9_DSB7_L26N: HS9_DSB7 with peptide point mutation L26N; SEQ ID NO: 464 (protein)
chain: B1 chain with Y2G, L26N
B10: HS9_DSB7_V19S: HS9_DSB7 with peptide point mutation V19S; SEQ ID NO: 454 (protein)
chain: B1 chain with Y2G, V19S
B11: HS9_DSB7_I23G: HS9_DSB7 with peptide point mutation I23G; SEQ ID NO: 459 (protein)
chain: B1 chain with Y2G, I23G
B12: HS9_DSB7_V19T: HS9_DSB7 with peptide point mutation V19T; SEQ ID NO: 453 (protein)
chain: B1 chain with Y2G, V19T
B13: HS9_DSB7_L26Q: HS9_DSB7 with peptide point mutation L26Q; SEQ ID NO: 465 (protein)
chain: B1 chain with Y2G, L26Q
B14: HS9_DSB7_L26P: HS9_DSB7 with peptide point mutation L26P; SEQ ID NO: 463 (protein)
chain: B1 chain with Y2G, L26P
B15: HS9_DSB7_L26S: HS9_DSB7 with peptide point mutation L26S; SEQ ID NO: 462 (protein)
chain: B1 chain with Y2G, L26S
B16: HS9_DSB7_L26D: HS9_DSB7 with peptide point mutation L26D; SEQ ID NO: 471 (protein)
chain: B1 chain with Y2G, L26D
B17: HS9_DSB7_L26G: HS9_DSB7 with peptide point mutation L26G; SEQ ID NO: 469 (protein)
chain: B1 chain with Y2G, L26G
B18: HS9_DSB7_G2F: HS9_DSB7 with peptide point mutation G2F; SEQ ID NO: 450 (protein)
chain: B1 chain with Y2F
B19: HS9_DSB7_L26H: HS9_DSB7 with peptide point mutation L26H; SEQ ID NO: 468 (protein)
chain: B1 chain with Y2G, L26H
B20: HS9_DSB7_I23A: HS9_DSB7 with peptide point mutation I23A; SEQ ID NO: 460 (protein)
chain: B1 chain with Y2G, I23A
B21: HS9_DSB7_V19G: HS9_DSB7 with peptide point mutation V19G; SEQ ID NO: 455 (protein)
chain: B1 chain with Y2G, V19G
B22: HS9_DSB7_L26T: HS9_DSB7 with peptide point mutation L26T; SEQ ID NO: 461 (protein)
chain: B1 chain with Y2G, L26T
B23: HS9_DSB7_G2I: HS9_DSB7 with peptide point mutation G2I; SEQ ID NO: 449 (protein)
chain: B1 chain with Y2I
B24: PC9#2_GLP-1_VL: GLP-1 analogue SEQ ID NO:28 fused via linker SEQ ID NO:4 to light chain of PC9#2 (SEQ ID NO: 43) (protein)
chain: HGEGTFTSDVSSYLEEQAAKEFIAWLVKGGGGGGGSGGGGSGGGGSADIQMTQSPSSLSASVGDRVTITCKASQDVHTAVAWYQQKPGKAPKLLIYHASYRYTGVPSRFSGSGSGTDFTFTISSLQPEDIATYYCQQRYSLWRTFGQGTKLEIKR
modifications: heavy chain not cited

Target: human GLP-1 receptor (Homo sapiens, UniProt P43220)
Sequence (P43220 24-463): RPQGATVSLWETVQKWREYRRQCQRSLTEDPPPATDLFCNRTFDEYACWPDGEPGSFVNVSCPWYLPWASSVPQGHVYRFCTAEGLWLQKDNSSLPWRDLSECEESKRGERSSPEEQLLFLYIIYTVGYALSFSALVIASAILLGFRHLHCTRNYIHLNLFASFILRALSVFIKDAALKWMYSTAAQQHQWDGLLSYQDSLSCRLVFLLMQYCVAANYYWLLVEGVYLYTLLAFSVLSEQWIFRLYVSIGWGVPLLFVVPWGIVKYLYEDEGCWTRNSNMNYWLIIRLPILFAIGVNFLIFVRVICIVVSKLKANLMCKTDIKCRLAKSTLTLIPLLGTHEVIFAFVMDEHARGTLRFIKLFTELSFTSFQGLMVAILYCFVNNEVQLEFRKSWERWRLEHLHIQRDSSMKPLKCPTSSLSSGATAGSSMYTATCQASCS
Test: cAMP production assay in CHO cells expressing human GLP-1 receptor
Format: cell-based
Details: for % Max Effect / Potency at huGLP-1R in cAMP assay (M): Table 18; for % Max Effect: maximum activation compared to GLP-1
Method: Low protein binding 384-well plates (Greiner) were used to perform eleven 1 in 4 serial dilutions of test compound that were made in assay medium (0.1% bovine serum albumin in Hanks Balanced Salt Solution (GIBCO or Sigma), containing 0.5 mM IBMX (Sigma)). All sample dilutions were made in duplicate. […] Cells were then re-suspended in assay buffer at the optimized concentration of 1×10^5 cells/mL and dispensed at 5 uL per well to black shallow-well u-bottom 384-well plates (Corning). 5 μL of test compound was transferred from the dilution plate to the cell plate and incubated at room temperature for 30 minutes. cAMP levels were measured the cAMP dynamic 2 HTRF kit (Cisbio), following the two step protocol as per manufacturer's recommendations. Briefly, anti-cAMP cryptate (donor fluorophore) and cAMP-d2 (acceptor fluorophore) were made up separately by diluting each 1/20 in conjugate & lysis buffer provided in the kit. 5 uL of anti-cAMP cryptate was added to all wells of the assay plate and 5 uL of cAMP-d2 added to all wells except non-specific binding wells, to which only conjugate and lysis buffer was added. […] Data was transformed to % Delta F as described in manufacturer's guidelines and analyzed by unconstrained 4-parameter logistic fit of data, curve mid-point to determine EC50.

| Molecule | % Max Effect | Potency at huGLP-1R in cAMP assay (M) | x change (Table 13, EC50 relative to GLP1-Fc) |
| --- | --- | --- | --- |
| B1 | 10% | – | – |
| B2 | 73% | – | – |
| B3 | Inactive | Inactive | – |
| B4 | 90% | – | – |
| B5 | Inactive | Inactive | – |
| B6 | 31% | – | – |
| B7 | 86% | – | – |
| B8 | Inactive | Inactive | – |
| B9 | 44% | – | – |
| B10 | 94% | – | – |
| B11 | 82% | – | – |
| B12 | 95% | – | – |
| B13 | 34% | – | – |
| B14 | 60% | – | – |
| B15 | Inactive | Inactive | – |
| B16 | Inactive | Inactive | – |
| B17 | 81% | – | – |
| B18 | 69% | – | – |
| B19 | 87% | – | – |
| B20 | 67% | – | – |
| B21 | 93% | – | – |
| B22 | 87% | – | – |
| B23 | 87% | – | – |
| B24 | – | – | 2.4 |
